Measured values from patent US20240109974A1 (SHANDONG SIMCERE BIOPHARMACEUTICAL, published 2024).

T1: Cynomolgus TNFR2-His (Sino 90102-C08H) (cynomolgus monkey, UniProt A0A2K5VET2 132-366)
T1 construct: Bought protein; also called cynomolgus monkey TNFR2; recombinant cynomolgus monkey TNFR2 protein; not shown: His tag
T1 sequence: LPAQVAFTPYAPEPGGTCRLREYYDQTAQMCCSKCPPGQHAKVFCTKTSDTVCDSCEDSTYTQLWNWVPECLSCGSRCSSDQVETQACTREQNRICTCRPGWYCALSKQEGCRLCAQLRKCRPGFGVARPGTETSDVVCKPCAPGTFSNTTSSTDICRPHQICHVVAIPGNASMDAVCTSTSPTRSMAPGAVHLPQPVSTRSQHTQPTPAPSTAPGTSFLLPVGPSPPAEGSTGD

T2: human TNFR2 (Novoprotein, Cat #C830) (human, UniProt P20333 23-257, limits assumed)
T2 construct: construct not described; also called human TNFR2 protein
T2 sequence (looked up): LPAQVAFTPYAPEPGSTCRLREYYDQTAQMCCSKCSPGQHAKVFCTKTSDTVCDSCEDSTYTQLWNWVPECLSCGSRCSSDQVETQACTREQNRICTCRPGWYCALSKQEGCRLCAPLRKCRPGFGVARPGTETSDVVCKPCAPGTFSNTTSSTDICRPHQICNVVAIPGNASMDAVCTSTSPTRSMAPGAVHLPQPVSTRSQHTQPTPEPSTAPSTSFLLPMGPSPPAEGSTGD


Columns and labels:
[1] = biological target: T1, Cynomolgus TNFR2-His (Sino 90102-C08H); assay: SPR (Biacore T200), antibody captured on Protein A chip
Method: Biacore was used to detect the specific binding of a test anti-TNFR2 antibody to human and cynomolgus monkey TNFR2 proteins. In this experiment, a Protein A chip was used, the time required for the chip to capture the diluted antibody was determined by manual run, so that the Rmax of the saturated binding to an antigen was 50 RU. […] The affinity of an antibody for an antigen was determined by using multi-cycle dynamics. In each cycle, an antibody was injected and then a TNFR2 protein at a gradient concentration was injected, so that the antigen and the antibody underwent binding and dissociation processes. After each cycle, the Protein A chip was regenerated with Glycine pH 1.5 (removing the protein on the chip). The affinity KD of an antibody and an antigen was fitted with BIAcore T200 analysis software.

[2] = biological target: T2, human TNFR2 (Novoprotein, Cat #C830); assay: competition ELISA, competitor human TNFα-Biotin; area under the OD curve
Method: 1 μg/ml human TNFR2 (Novoprotein, Cat #C830) was pre-coated with 100 μl/well […] in an ELISA plate. All the test TNFR2 antibodies were subjected to 2.5-fold gradient dilution from the highest concentration of 30 μg/ml; the diluted antibodies were mixed with 15 ng/ml human TNFα-Biotin (Acro Biosystem, Cat #TNA-H82E3) in equal volume, respectively; the resulting mixture was added to the ELISA plate at 100 μl/well, and incubated with shaking at room temperature for 2.0 hours. The plate was washed, and then a Streptavidin-HRP working solution (diluted at 1:10000) was added at 100 μl/well, and the mixture was incubated with shaking at room temperature for 40 minutes. The plate was washed again, and then the substrate TMB of HRP was added to develop colour. A stop solution was added to stop the reaction, and then a microplate reader (MD 13) was used to read the absorbance value. The inhibitory curve of an antibody was drawn with antibody concentration as the abscissa and corresponding OD value as the ordinate, and fitted with four parameters (GraphPad Prism9) to calculate the IC50 value. The smaller the IC50 value, the stronger the ability of an antibody to inhibit the binding of human TNFα to human TNFR2. The blocking effect of a humanized antibody was normalized to its corresponding human-murine chimeric antibody WT. The higher the percentage value, the better the inhibitory effect of the humanized antibody.

Row | Binder | Kd [1] | koff [1] | kon [1] | AUC [2]
1 | 001-WT (antibody, V domains shown, Human-murine chimeric wild-type molecule; also called human-murine chimeric antibody WT of #001) VH: EVQLQESGGGLVQPGGSLNLSCAASGFAFSTYDLSWVRQTPEKRLEWVAYINNGGISTYYSDTVKGRFTISRDNAKNTLYLQMSSLKSEDTAMYYCVRGPFYGSANYFDYWGQGTTVTVSS VL: EIVMTQSPASLSLSVGETVTITCRTSESIYSNLPWYQQKQGKSPQLLVYDATKLAEGVPSRFSGSESGTQYSLKINSLQSEDFGTYYCQHFWVTPWTFGGGTKLEIK | 0.252 nM | 0.000154 s⁻¹ | 614000 M⁻¹ s⁻¹ | –
2 | 001-Hu5 (antibody, V domains shown, Humanized form of #001; also called VH1 + VL4) VH: EVQLVESGGGLVQPGGSLRLSCAASGFAFSTYDLSWVRQAPGKGLEWVAYINNGGISTYYSDTVKGRFTISRDNAKNTLYLQMNSLRAEDTAVYYCVRGPFYGSANYFDYWGQGTLVTVSS VL: DIQMTQSPSSLSASVGDRVTITCRTSESIYSNLPWYQQKPGKSPKLLVYDATKLAEGVPSRFSGSGSGTDYTLTISSLQPEDFATYYCQHFWVTPWTFGQGTKVEIK | 0.475 nM | 0.000175 s⁻¹ | 369000 M⁻¹ s⁻¹ | 8.02
3 | 001-Hu3 (antibody, V domains shown, Humanized form of #001; also called VH1 + VL3) VH: EVQLVESGGGLVQPGGSLRLSCAASGFAFSTYDLSWVRQAPGKGLEWVAYINNGGISTYYSDTVKGRFTISRDNAKNTLYLQMNSLRAEDTAVYYCVRGPFYGSANYFDYWGQGTLVTVSS VL: DIQMTQSPSSLSASVGDRVTITCRTSESIYSNLPWYQQKPGKAPKLLIYDATKLAEGVPSRFSGSGSGTDYTLTISSLQPEDFATYYCQHFWVTPWTFGQGTKVEIK | 0.43 nM | 0.000155 s⁻¹ | 361000 M⁻¹ s⁻¹ | 7.87
4 | 001-Hu2 (antibody, V domains shown, Humanized form of #001; also called VH2 + VL2) VH: EVQLVESGGGLVQPGGSLRLSCAASGFAFSTYDLSWVRQAPGKGLEWVAYINNGGISTYYSDTVKGRFTISRDNAKNSLYLQMNSLRAEDTAVYYCVRGPFYGSANYFDYWGQGTLVTVSS VL: DIQMTQSPSSLSASVGDRVTITCRTSESIYSNLPWYQQKPGKSPKLLIYDATKLAEGVPSRFSGSGSGTDFTLTISSLQPEDFATYYCQHFWVTPWTFGQGTKVEIK | 0.599 nM | 0.000164 s⁻¹ | 273000 M⁻¹ s⁻¹ | 8.1
5 | 219-Hu3 (antibody, V domains shown, also called VH5 + VL5) VH: QVQLVQSGAEVKKPGSSVKVSCKASGYSFTNYWMNWVRQAPGQGLEWMGMIHPSDTETRLNQNFKDRVTITADKSTSTAYMELSSLRSEDTAVYYCARGEGLGAARSVSMDYWGQGTLVTVSS VL: DIQMTQSPSSLSASVGDRVTITCRASQDISNYLNWYQQKPDGTVKLLIYYTAILHSGVPSRFSGSGSGTDYSLTISSLQPEDFATYFCQQGNTLPWTFGQGTKVEIK | 0.723 nM | 0.000399 s⁻¹ | 552000 M⁻¹ s⁻¹ | 8.16
6 | 219-Hu1 (antibody, V domains shown, also called VH3 + VL5) VH: QVQLVQSGAEVKKPGASVKVSCKASGYSFTNYWMNWVRQAPGQRLEWMGMIHPSDTETRLNQNFKDRVTITRDTSASTAYMELSSLRSEDTAVYYCARGEGLGAARSVSMDYWGQGTLVTVSS VL: DIQMTQSPSSLSASVGDRVTITCRASQDISNYLNWYQQKPDGTVKLLIYYTAILHSGVPSRFSGSGSGTDYSLTISSLQPEDFATYFCQQGNTLPWTFGQGTKVEIK | 0.532 nM | 0.000332 s⁻¹ | 623000 M⁻¹ s⁻¹ | 7.92
7 | 224-WT (antibody, V domains shown, Human-murine chimeric wild-type molecule; also called human-murine chimeric antibody WT of #224) VH: EVQLQESGPEIVKPGASVKLSCTASGFNNKDIYMHWVKQRPEQGLEWIGRIDPATGNTKHDPKFQDKATLSSDTSSNTAYLQFSSLTSEDTAVYYCAHSPYGDFGAMDYWGQGTTVTVSS VL: DIQMTQSPAIMSASLGERVTMTCTASSSVSSNYLHWYQQKPGSSPKLWIYSTSNLPSGVPARFSGSGSGTSYSLTISSMEAEDAATYYCHQYHRSPWTFGGGTKLEIK | 0.897 nM | 0.000409 s⁻¹ | 456000 M⁻¹ s⁻¹ | –

More lines, in order of falling Kd [1], values ahead:

Row | Kd [1] | koff [1] | kon [1] | AUC [2] | Binder
8 | 1.14 nM | 0.000562 s⁻¹ | 492000 M⁻¹ s⁻¹ | – | 219-WT (antibody, V domains shown, Human-murine chimeric wild-type molecule) VH: EVQLQESGAELVRPGASVKLSCKASGYSFTNYWMNWVKQRPGQGLEWIGMIHPSDTETRLNQNFKDKATLTVDKSSSTSYMQLSSPTSEDSAVYYCARGEGLGAARSVSMDYWGQGTTVTVSS VL: DILMTQSPSSLSASLGDRVTISCRASQDISNYLNWYQQKPDGTVKVLIYYTAILHSGVPSRFSGSGSGTDYSLTISNLEQEDIATYFCQQGNTLPWTFGGGTKLEIK
9 | 0.681 nM | 0.000412 s⁻¹ | 605000 M⁻¹ s⁻¹ | 7.82 | 219-Hu2 (antibody, V domains shown, also called VH4 + VL5) VH: QVQLVQSGAEVKKPGSSVKVSCKASGYSFTNYWMNWVRQAPGQGLEWMGMIHPSDTETRLNQNFKDKATITADKSTSTAYMELSSLRSEDTAVYYCARGEGLGAARSVSMDYWGQGTLVTVSS VL: DIQMTQSPSSLSASVGDRVTITCRASQDISNYLNWYQQKPDGTVKLLIYYTAILHSGVPSRFSGSGSGTDYSLTISSLQPEDFATYFCQQGNTLPWTFGQGTKVEIK
10 | 0.626 nM | 0.000381 s⁻¹ | 608000 M⁻¹ s⁻¹ | 7.96 | 219-Hu5 (antibody, V domains shown, also called VH7 + VL5) VH: QVQLVQSGAEVKKPGSSVKVSCKASGYSFTNYWMNWVRQAPGQGLEWMGMIHPSDTETRLNQNFKDRVTITVDKSTSTAYMELSSLRSEDTAVYYCARGEGLGAARSVSMDYWGQGTLVTVSS VL: DIQMTQSPSSLSASVGDRVTITCRASQDISNYLNWYQQKPDGTVKLLIYYTAILHSGVPSRFSGSGSGTDYSLTISSLQPEDFATYFCQQGNTLPWTFGQGTKVEIK
11 | 0.576 nM | 0.000389 s⁻¹ | 675000 M⁻¹ s⁻¹ | 7.66 | 219-Hu4 (antibody, V domains shown, also called VH6 + VL5) VH: QVQLVQSGAEVKKPGSSVKVSCKASGYSFTNYWMNWVKQAPGQGLEWIGMIHPSDTETRLNQNFKDKATLTVDKSTSTAYMELSSLRSEDTAVYYCARGEGLGAARSVSMDYWGQGTLVTVSS VL: DIQMTQSPSSLSASVGDRVTITCRASQDISNYLNWYQQKPDGTVKLLIYYTAILHSGVPSRFSGSGSGTDYSLTISSLQPEDFATYFCQQGNTLPWTFGQGTKVEIK
12 | 0.473 nM | 0.000167 s⁻¹ | 354000 M⁻¹ s⁻¹ | 7.86 | 001-Hu4 (antibody, V domains shown, Humanized form of #001; also called VH2 + VL4) VH: EVQLVESGGGLVQPGGSLRLSCAASGFAFSTYDLSWVRQAPGKGLEWVAYINNGGISTYYSDTVKGRFTISRDNAKNSLYLQMNSLRAEDTAVYYCVRGPFYGSANYFDYWGQGTLVTVSS VL: DIQMTQSPSSLSASVGDRVTITCRTSESIYSNLPWYQQKPGKSPKLLVYDATKLAEGVPSRFSGSGSGTDYTLTISSLQPEDFATYYCQHFWVTPWTFGQGTKVEIK
13 | 0.47 nM | 0.00016 s⁻¹ | 340000 M⁻¹ s⁻¹ | 7.63 | 001-Hu1 (antibody, V domains shown, Humanized form of #001; also called VH1 + VL1) VH: EVQLVESGGGLVQPGGSLRLSCAASGFAFSTYDLSWVRQAPGKGLEWVAYINNGGISTYYSDTVKGRFTISRDNAKNTLYLQMNSLRAEDTAVYYCVRGPFYGSANYFDYWGQGTLVTVSS VL: DIQMTQSPSSLSASVGDRVTITCRTSESIYSNLPWYQQKPGKAPKLLLYDATKLAEGVPSRFSGSGSGTDYTLTISSLQPEDFATYYCQHFWVTPWTFGQGTKVEIK
